# B1: Serine/threonine-protein kinase VRK1 (Homo sapiens), Q99986 (parent)
# chain: MPRVKAAQAGRQSSAKRHLAEQFAVGEIITDMAKKEWKVGLPIGQGGFGCIYLADMNSSESVGSDAPCVVKVEPSDNGPLFTELKFYQRAAKPEQIQKWIRTRKLKYLGVPKYWGSGLHDKNGKSYRFMIMDRFGSDLQKIYEANAKRFSRKTVLQLSLRILDILEYIHEHEYVHGDIKASNLLLNYKNPDQVYLVDYGLAYRYCPEGVHKEYKEDPKRCHDGTIEFTSIDAHNGVAPSRRGDLEILGYCMIQWLTGHLPWEDNLKDPKYVRDSKIRYRENIASLMDKCFPEKNKPGEIAKYMETVKLLDYTEKPLYENLRDILLQGLKAIGSKDDGKLDLSVVENGGLKAKTITKKRKKEIEESKEPGVEDTEWSNTQTEEAIQTRSRTRKRVQK
# Variants of: B1
# Details: with aurkb_human AURKB
row,effect of a mutation on the interaction,Variant
1,increasing interaction strength,K179E

# Variants of: B1
# Details: with aurkb_human AURKB
# Remark: another data set of the same source
row,effect of a mutation on the interaction,Variant
1,disrupting interaction strength,K179E
